The chains are these.
B1: full-length human Draxin AVEXIS prey, wild type [human] / human Netrin-1 WT bait protein (VI+V), AVEXIS [human] (parent complex)
chain 1: GALAPGTPARNLPENHIDLPGPALWTPQASHHRRRGPGKKEWGPGLPSQAQDGAVVTATRQASRLPEAEGLLPEQSPAGLLQDKDLLLGLALPYPEKENRPPGWERTRKRSREHKRRRDRLRLHQGRALVRGPSSLMKKAELSEAQVLDAAMEESSTSLAPTMFFLTTFEAAPATEESLILPVTSLRPQQAQPRSDGEVMPTLDMALFDWTDYEDLKPDGWPSAKKKEKHRGKLSSDGNETSPAEGEPCDHHQDCLPGTCCDLREHLCTPHNRGLNNKCFDDCMCVEGLRCYAKFHRNRRVTRRKGRCVEPETANGDQGSFINV
chain 2: not shown

Variants of B1 are the subject of this test. Nature of the test: AVEXIS; average of three repeats; read off a plot.
For the variant chain 1 L203A, the response is around 0.004 A486 nm.

Take chain 1 L203P: the response is around 0.005 A486 nm.

chain 1 L203R: the response is around 0.004 A486 nm.

For chain 1 F208R, the response was around 0.021 A486 nm.

Take chain 1 F208P: the response is around 0.037 A486 nm.

Take chain 1 F208A: the response is around 0.055 A486 nm.

(Values after PMC5871715 (2018).)
